In this assay the target is F-actin, rabbit skeletal muscle (rabbit) (UniProt P68135).

The values below come from paper doi:10.1101/2021.07.09.451618.

For “M15-2IQ : ELC : RLC complex (1:1:1), jordan (p.D1647G) MYO15 motor domain (from UniProt P60661 1-151)”, the kcat: extrapolated maximum catalytic rate of the actin-activated ATPase is 0.87 s⁻¹.

For the substance “M15-2IQ : ELC : RLC complex (1:1:1), wild-type MYO15 motor domain (from UniProt P60661 1-151)”, the kcat: extrapolated maximum catalytic rate of the actin-activated ATPase was 5.8 s⁻¹.
